In patent US20230331835A1 (published 2023) one finds Kd data, which are given here for five molecules.

Assay [1] concerns the target BMECs. Description: cell binding, apparent equilibrium affinity; apparent Kd; 95% CI 29-47.
Assay [2] has as its target BMECs. Nature of the assay: cell binding, apparent equilibrium affinity; apparent Kd; 95% CI 19-36.
The target of assay [3] is BMECs. Description: cell binding, apparent equilibrium affinity; apparent Kd; 95% CI 27-60.
In assay [4] the target is BMECs. Nature of the assay: cell binding, apparent equilibrium affinity; apparent Kd; 95% CI 30-74.
The target in assay [5] is BMECs. Nature of the assay: cell binding, apparent equilibrium affinity; apparent Kd; 95% CI 128-179.

B1: 26 (Fc fusion)
chain: QVELVESGGGLVQPGGSLRLSCAASGFTFSTYWMNWVRQAPGKGLEWVAIINQDGTAEYYVDSVEGRFTISRDNAKNSLYLQMTSLRVEDTAVYYCATPTGDSDYWGQGTLVTVSSGGGGSGGGGSGGGGSSELTQDPAVSVALGQTVRITCQGDSLRSYYATWYQQKPGQAPVAVIYGQNNRPSGIPDRFSGSNSGNTASLTITAALAEDEADYYCHSRDSSGNHVLFGGGTKLTVLG
Turning to B1, the Kd with BMECs [1] was found to be 38 nM.

B2: 17 (Fc fusion)
chain: QVQLLQSAGALVQPGGSLRLSCAASGFTFSSSTMHWVRQAPGKGLEWVAVVSYDGNTQYYADSVKGRFTISRDNSKNTLSLQMNNLRAEDTAVYYCAGLWGSLLGYFQHWGQGTLVTVSSGGGGSGGGGSGGGGSDIQMTQSPSFLSASVGDRVTITCRASQGVNNYLAWYQQKPGKAPKLLIYAASTLQSGVPSSFSGSGSGTEFTLTISSLQPEDFATYFCQQAHSFPPTFGGGTKLEIKR
On to B2, for which the Kd in the assay with BMECs [2] was found to be 28 nM.

B3: 9 (Fc fusion)
chain: QVQLVESGGGVTQPGLSLRLSCAASGFTFSSYAMSWVRQAPGKGLEWVSAISGSGGSTYYADSVKGRFTISRDNSKNTLYLQMNSLRAEDTAVYYCARGWKYFDYWGQGTLVTVSSSGGGSGGGGSGGGGSETTLTQSPSTLSASIGDRVAITCRASEGIYHWLAWYQQKPGKAPKLLIYKASSLASGAPSRFSGSGSGTDFTLTISSLQPDDFATYYCQQYHTISRTFGPGTKVEIKR
With B3, the Kd with BMECs [3] was determined as 44 nM.

B4: 3 (Fc fusion)
chain: QVQLQESGGGVVQPGRSLRLSCAASGFTFSSYAMHWVRQAPGKGLEWVAVISYDGSNKYYADSVKGRFTISRDNSKNTLYLQMNSLRAEDTAVYYCARDSKGQSVRNRFDPWGQGTLVTVSSGGGGSGGGGSGGGGSSELTQDPAVSVALGQTVRITCQGDNLRSYYASWYQQRPGQAPILVLYANTHRPSSIPDRFSGSSSGNTASLTITGAQAEDEADYYCNSRDSSGNLVVFGGGTKLTVLG
For the molecule B4, the Kd with BMECs [4] was found to be 52 nM.

B5: 46.1 (Fc fusion)
chain: QVQLQESGGGLAQPGGSLRLSCAASGFTFSGYWMHWVRQAPGKGLVWVSRIKGDGTDIEYADSVKGRFTISRDNAKNTLYLQMNSLRAEDTAVYYCARDLRQTHWFDSWGQGTLVTVSSGGGGSGGGGSGGGGSQSALTQDPAVSVALGQTVRITCQGDSLRSYYASWYQQKPGQAPVLVMYGENSRPSGIPDRFSGSNSGNTASLIITGAQAEDEADYYCSSRDTSGNHVLFGGGTKLTVLG
Take B5: the Kd in the assay with BMECs [5] was 153 nM.
